Measurements as given in US20220056124A1 (University of Texas, published 2022).

Assays:
[1] = molecular target: T1, recombinant human endotrophin (77 amino acids at the carboxy-terminal of the COL6α3 chain, HEK293-expressed, … (human, UniProt P12111 3101-3177)); test: ELISA titration on plate-coated recombinant endotrophin, 4-parameter fit
T1 construct: the His-tag was removed by enterokinase, leaving the 77 amino acid endotrophin free of tags; also called ETP; recombinant endotrophin protein
Protocol: (§1) Antibody-antigen ELISA Binding Assay. Corning 96-well EIA/RIA plates were coated overnight at 4° C. with HEK293 expressed recombinant endotrophin (1 μg/mL) and blocked for 2 hr at 37° C. with 5% non-fat milk. After washing with PBST for 3 times, 100 μL of serial diluted anti-endotrophin antibodies were added and incubated for 45 min at 37° C. Subsequently, the plates were washed with PBST and incubated for 30 min with anti-rabbit or anti-human F(ab′)2 HRP-conjugated antibody (Jackson ImmunoResearch Laboratories). The immunoreactions were developed with TMB substrates (Sigma) and stopped by the addition of 2 M sulfuric acid before reading the plate at 450 nm.
(§2) Binding of endotrophin by monoclonal antibodies was first screened by ELISA using supernatants collected from the B cell cultures (FIG. 10). ELISA titration was used to determine the binding affinity of a panel of monoclonal antibodies to endotrophin antigen (FIG. 11). Binding constants (EC₅₀) of a panel of monoclonal antibodies were estimated using four-parameter curve fitting with Prism GraphPad (Table 3).

[2] = molecular target: T1, recombinant human endotrophin (77 amino …); test: ELISA titration, plate coated with recombinant endotrophin, serially diluted antibody, HRP secondary antibody, OD450
Protocol: as §1, §2

[3] = molecular target: T1, recombinant human endotrophin (77 amino …); test: BLI (Octet RED96), antibody on protein A biosensors, endotrophin 0.1-200 nM, 1:1 fit
Protocol: Following a short baseline in kinetics buffer, the loaded biosensors were exposed to a series of recombinant endotrophin protein at 0.1-200 nM and background subtraction was used to correct for sensor drifting. All experiments were performed with shaking at 1,000 rpm. Background wavelength shifts were measured from reference biosensors that were loaded only with antibody. Kinetic sensorgrams for each antibody are shown in FIGS. 12A&B. ForteBio's data analysis software was used to fit the data to a 1:1 binding model to extract an association rate and dissociation rate.

[4] = molecular target: T1, recombinant human endotrophin (77 amino …); test: BLI (Octet RED96)

T1 sequence (P12111 3101-3177 limits assumed): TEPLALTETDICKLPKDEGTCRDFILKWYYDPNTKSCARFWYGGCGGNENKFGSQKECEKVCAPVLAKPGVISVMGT

B1: ETP-mAb6 (antibody, V domains shown)
VH: QSVKESEGGLVQPEGSLTLTCTASGFSFSNSDYMCWVRQAPGKGLEWIGWIDLVGNTNSYYASWAKGRFTISKTSSTTVALQMTSLTVADTATYFCARDLGFDTNLWGPGTLVTVSS
VL: ELDLTQTPASVSAAVGGTVTINCQASQNINSWLSWYQQKPGQRPKLLIYQASKLPSGVPSRFKGSGSGTQFTLTISDLECADAATYYCQSHDYRTTGSYGNVFGGGTEVEIK
notes: Rabbit monoclonal
[1]
  EC50: 0.053 µg/mL
[2]
  EC50 (read off the curve): ~0.06 µg/mL

B2: ETP-mAb4 (antibody, V domains shown)
VH: SSRVKESGGDLVKPGASLTLTCKASGFSFSSGYYICWVRQAPGKGLEWIACIYGGNNNPYYANWVNGRFTTSKTSSTTVTLQMTNLTGADTATYFCARKDINIGGAYELWGPGTLVTISS
VL: ELVMTQTPASVSEPVGGTVTINCQASQSISSSYLSWYQQKPGQPPKLLIYKASTLASGVPSRFKGSGSGTQFSLTISDLECADAATYYCQYSDWANSYGNAFGGGTEVVVK
notes: Rabbit monoclonal; also called parental rabbit ETPmAb4
[3]
  Kd: 1.75 nM
  koff: 0.000249 s⁻¹
  kon: 142000 M⁻¹ s⁻¹
[4]
  Kd: 1.62 nM
[1]
  EC50: 0.054 µg/mL
[2]
  EC50 (read off the curve): ~0.06 µg/mL

B3: ETP-mAb2 (antibody, V domains shown)
VH: EQSLEESEGGLVQPEGSLTLTCTASGFSFSRSDYMCWVRQAPGKGLEWIGWIDPGYSDTYYASWAQGRTTISKASSTTVTLQMTSLTVADTATYFCARDLGFDSNLWGPGTLVTISS
VL: ELDLTQTPASVSEPVGGTVTIKCQASQSINSYLSWYQQKPGQPPKLLIYQASKLASGVPSRFKGSGSGTQFTLTISDLECADAATYYCQSYDYRISGSDGNVFGGGTNVEIK
notes: Rabbit monoclonal
[1]
  EC50: 0.1 µg/mL
[2]
  EC50 (read off the curve): ~0.1 µg/mL

B4: ETP-mAb4.1 (humanized ETP-hMab4) (antibody, human IgG1, V domains shown)
VH: EVQLLESGGGLVQPGGSLRLSCAASGFSFSSGYYICWVRQAPGKGLEWIACIYGGNNNPYYANWVNGRFTISRDNSKNTLYLQMNSLRAEDTAVYYCARKDINIGGAYELWGQGTLVTVSS
VL: DIQMTQSPSSLSASVGDRVTITCQASQSISSSYLSWYQQKPGKAPKLLIYKASTLASGVPSRFSGSGSGTDFTLTISSLQPEDFATYYCQYSDWANSYGNAFGGGTKVEIK
notes: Humanized; tied by the number 4.1; also called ENT-hMab4.1
[3]
  Kd: 2.03 nM
  koff: 0.000235 s⁻¹
  kon: 116000 M⁻¹ s⁻¹

B5: ETP-mAb4.2 (humanized ETP-hMab4) (antibody, human IgG1, V domains shown)
VH: EVQLLESGGGLVQPGGSLRLSCAASGFSFSSGYYICWVRQAPGKGLEWIACIYGGNSNPYYANWVNGRFTISRDNSKNTLYLQMNSLRAEDTAVYYCARKDINIGGAYELWGQGTLVTVSS
VL: DIQMTQSPSSLSASVGDRVTITCQASQSISSSYLSWYQQKPGKAPKLLIYKASTLASGVPSRFSGSGSGTDFTLTISSLQPEDFATYYCQYSDWANSYGNAFGGGTKVEIK
notes: also called ENT-hMab4.2
[3]
  Kd: 2.48 nM
  koff: 0.000305 s⁻¹
  kon: 123000 M⁻¹ s⁻¹

B6: ETP-mAb4.5 (humanized ETP-hMab4) (antibody, human IgG1, V domains shown)
VH: EVQLLESGGGLVQPGGSLRLSCAASGFTFSSGYYICWVRQAPGKGLEWIACIYGGNSNPYYANWVNGRFTISRDNSKNTLYLQMNSLRAEDTAVYYCARKDINIGGAYELWGQGTLVTVSS
VL: DIQMTQSPSSLSASVGDRVTITCQASQSISSSYLSWYQQKPGKAPKLLIYKASTLASGVPSRFSGSGSGTDFTLTISSLQPEDFATYYCQYSDWANSYGNAFGGGTKVEIK
notes: also called ENT-hMab4.5
[3]
  Kd: 1.92 nM
  koff: 0.000223 s⁻¹
  kon: 116000 M⁻¹ s⁻¹

B7: ETP-mAb4.4 (humanized ETP-hMab4) (antibody, human IgG1, V domains shown)
VH: EVQLLESGGGLVQPGGSLRLSCAASGFSFSSGYYICWVRQAPGKGLEWIACIYGGNNNPYYANWVNGRFTTSRDNSKNTLYLQMNSLRAEDTAVYYCARKDINIGGAYELWGQGTLVTVSS
VL: DIQMTQSPSSLSASVGDRVTITCQASQSISSSYLSWYQQKPGKAPKLLIYKASTLASGVPSRFSGSGSGTDFTLTISSLQPEDFATYYCQYSDWANSYGNAFGGGTKVEIK
notes: also called ENT-hMab4.4
[3]
  Kd: 2.53 nM
  koff: 0.000328 s⁻¹
  kon: 130000 M⁻¹ s⁻¹

B8: ETP-mAb11 (antibody, V domains shown)
VH: QSVKESEGGLVQPEGSLTLTCTASGFSFSSSYYMCWVRQAPGKGLEWIGCIYLGNNENTAYTSWAKGRFTISKTSSTTVTLQMTSLTAADTTTYFCARDTSGGSDYYFGLWGPGTLVTISS
VL: ELDLTQTPASVEVAVGGTVTIKCQASHRIKTYLAWYQQKPGQPPKLLIYGASTLASGVPSRFKGSGSGTQFTLTISGVECADAATYYCQQGYSDGNVDNVFGGGTEVEIK
notes: Rabbit monoclonal
[1]
  EC50: 0.359 µg/mL
[2]
  EC50 (read off the curve): ~0.4 µg/mL

B9: ETP-mAb1 (antibody, V domains shown)
VH: QSVKESGGDLVKPGASLTLTCTASGIDFSAGYYMCWVRQAPGKGLELIACIYAGRSLNTFYASWAKGRFTISRASSTTVTLAMTSLTAADTATYFCARDGASSGYYFKLWGPGTLVTISS
VL: ELDMTQTPASVEVAVGGTVTIKCQASQSIGSNLAWYQQKPGQRPNVLIYDASNLASGVSSRFKGSGSGTQFTLTISGGECADAATYYCQQGYSDNYLDNAFGGGTEVVVK
notes: Rabbit monoclonal
[1]
  EC50: 0.023 µg/mL
[2]
  EC50 (read off the curve): ~0.02 µg/mL

B10: ETP-mAb10 (antibody, V domains shown)
VH: QSLEESGGGLVQPEGSLTLTCTASGFSFSRGDYMCWVRQAPGKGLEWIGWIDVGRDNDSYYATWAKGRFSISKTSSTTVTLQMTSLTVADTATYFCARDLGFDTNLWGPGTLVTVSS
VL: ELDMTQTPASVSAAVGGTVTINCQASQNINSWLSWYQQKPGQPPKLLIYQASKLASGVPSRLKGSGSGTQFSLTISDLECADGATYYCQSYDYRSSGNGGNVFGGGTEVEIK
notes: Rabbit monoclonal
[1]
  EC50: 0.142 µg/mL
[2]
  EC50 (read off the curve): ~0.1 µg/mL

B11: ETP-mAb72 (antibody, V domains shown)
VH: QSLEESGGGLVQPEGSLTLTCTASGFSFSRGDYVCWVRQAPGKGLEWIGWIDVGSVIESYYATWAKGRFTISKTSSTTVTLQMTSLTVADTATYFCARDLGFDTNLWGPGTLVTVSS
VL: ELVMTQTPASVEAAVGGTVTINCQASESISIYLNWYQQKPGQPPKLLIYQASKLASGVPSRFKGSGSGTEFTLTISDLECADAATYYCQSHDYRIGRSDCNVFGGGTNVEIK
notes: Rabbit monoclonal
[1]
  EC50: 0.306 µg/mL
[2]
  EC50 (read off the curve): ~0.3 µg/mL
